The text below walks through data of patent publication US20090004163, “METHOD OF ENHANCING PROLIFERATION AND/OR HEMATOPOIETIC DIFFERENTIATION OF STEM CELLS” (THE CHILDREN'S MEDICAL CENTER CORPORATION, published 2009).

The data set concerns the target Cdx4 F170L (kggtl240) (Danio rerio, UniProt A8KBT9 A8KBT9:1-270, F170L). Description: EMSA; mutation prevents binding to cdx4 consensus site. The conditions noted are these: tags: TNT SP6 IVT (Promega).

Cdx4 F170L (kggtl240), sequence (A8KBT9 entry or part of it F170L | F170L F170L, one chain of several): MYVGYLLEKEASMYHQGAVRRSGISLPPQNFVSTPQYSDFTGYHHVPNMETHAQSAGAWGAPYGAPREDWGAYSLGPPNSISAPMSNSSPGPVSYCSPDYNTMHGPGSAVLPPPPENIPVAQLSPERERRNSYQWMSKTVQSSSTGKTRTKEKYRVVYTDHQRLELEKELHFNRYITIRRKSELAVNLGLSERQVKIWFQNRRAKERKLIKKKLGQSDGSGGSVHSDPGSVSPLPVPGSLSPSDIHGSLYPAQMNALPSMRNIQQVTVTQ

B1: consensus cdx binding site probe (dsDNA)
DNA 1: GAGAAATTTATATTGT
DNA 2: ACAATATAAATTTCTC
Consider B1, for which the binding result was “no binding”.
